Tests used:
[1] = tested on: patients with OA of the knee and/or hip; test: ISS post-hoc analysis combining OA joint burden and alkaline phosphatase cut-off (weeks 8-16); type: in vivo, human
From the text: Both the baseline burden of OA and the change in alkaline phosphatase identify patients with higher risk of AA/DA/JR; these findings are observed only in the fasinumab arms, not the placebo arm, indicating an NGF-specific mechanism. The results raise the possibility of excluding high-risk patients and treating only patients with lower risk of joint-related adverse events, using more than one approach. To understand whether there is an interaction between the two approaches, and to explore a number of potential risk mitigation options, a post-hoc analysis was performed on the ISS data set to examine the impact of alkaline phosphatase within various joint subgroups. Because efficacy was preserved in the 1-2 and 3-4 joint subgroups as discussed above, the rates of AA/DA/JR were examined in overlapping subgroups: patients with 1-2, 1-3 and 1-4 joints with OA at baseline. For each of these subgroups, five potential cut-offs for change in alkaline phosphatase were explored: no change, 5-, 10-, 15- and 20-point change from baseline.
FIGS. 8A-8D show the percentage of patients with AA/DA/JR following exclusion of those who have a change in alkaline phosphatase at or above the designated cut-off at any time between weeks 8 and 16. In each of FIGS. 8A-8D, the X-axis represents overlapping bins of patients that become successively smaller as one looks left to right (percentage of the total population remaining in each bin is shown in the table beneath the graph). […] The next 5 bins to the right show the rates of AA/DA/JR in the patients who remain after excluding those above the designated cut-off for change in alkaline phosphatase. The placebo rate from the total ISS population is expressed as a solid black line.
For each of the joint related adverse events, the burden of OA and change in alkaline phosphatase are complementary from the perspective of risk-reduction. FIGS. 8A, 8C, and 8E show the reduction of risk of JR, AA, and DA, respectively, in patients treated with 1 mg fasinumab Q8W, for patients with different OA burden at different cut-off values for change in alkaline phosphatase. Similarly, FIGS. 8B, 8D, and 8F show the reduction of risk of JR, AA, and DA, respectively, in patients treated with 1 mg fasinumab Q4W, for patients with different OA burden at different cut-off values for change in alkaline phosphatase. For example, for the 1Q4 treatment arm and in the 1-2 joint subgroup, the JR rate is reduced from 7.4% in the total ISS population, to 6.4% in the 1-2 joint subgroup, to 5.5% in the population below the 20-point alkaline phosphatase cut-off—a difference of 0.4% from the ISS placebo rate (FIG. 8B). Similarly, for the 1Q4 treatment arm and in the 1-2 joint subgroup, the overall AA rate (70-80% RPDA-1) is reduced from 9.2% in the total ISS population, to 7.7% in the 1-2 joint subgroup, to 7.1% in the population below the 20-point alkaline phosphatase cut-off—a difference of 5.6% from the ISS placebo rate (FIG. 8D). Last, the DA rate is reduced from 0.5% in the total ISS population, to 0.3% in the 1-2 joint subgroup, to 0.1% in the population below the 20-point alkaline phosphatase (FIG. 8F).

[2] = tested on: patients with OA of the knee and/or hip; test: ISS rates of DA and AA above and below cut-offs for change in alkaline phosphatase at 16 weeks
From the text: To explore this possibility, three different cut-offs at 16 weeks were chosen (10, 15 and 20 U/L change from baseline) and the rate of DA above and below each cut-off was examined (FIG. 6). Of note, the standard deviation for change in alkaline phosphatase in the placebo arm is 12.9 at 8 weeks and 12.7 at 16 weeks.

[3] = tested on: patients with OA of the knee and/or hip; test: Integrated summary of efficacy (ISE): change in WOMAC pain subscale score at 16 weeks by joint subgroup; type: in vivo, human; details: 1Q4 and 1Q8 regimens; all joint subgroups; 95% confidence intervals excluded zero only for the 1-2 and 3-4 joint subgroups
From the text: The integrated summary of efficacy (ISE) examined the change in WOMAC pain subscale score at 16 weeks in each of the above subgroups and is illustrated in the Forrest plot below (FIG. 4).

[4] = tested on: adults with moderate-to-severe chronic pain associated with osteoarthritis (OA) of the knee or hip; test: FACT LTS (NCT02683239, R475-PN-1523) efficacy substudy; type: in vivo, human; details: fasinumab 1 mg Q8W and 1 mg Q4W groups
From the text: NCT02683239 (R475-PN-1523, or “FACT LTS”), NCT03161093 (R475-OA-1611, or “FACT OA1”), and NCT03304379 (R475-OA-1688, or “FACT OA2”) each were Phase 3 trials evaluating fasinumab in adults with moderate-to-severe chronic pain associated with osteoarthritis (OA) of the knee or hip. All three of these trials enrolled patients with OA of the knee or hip who had inadequate pain relief with acetaminophen and were intolerant to or had inadequate pain relief with opioids, or were unwilling or unable to take opioids. Complete inclusion and exclusion criteria for the trials are described at clinicaltrials.gov/ct2/show/NCT03161093, clinicaltrials.gov/ct2/show/NCT03304379, and clinicaltrials.gov/ct2/show/NCT02683239.
The FACT LTS study evaluated the long-term safety and tolerability of fasinumab, including adverse events of special interest such as joint damage (e.g. arthropathies), compared with placebo. A total of 2,411 patients were randomized to one of the following treatment arms: (1) fasinumab 1 mg subcutaneous (SC) every 8 weeks (Q8W); (2) fasinumab 1 mg SC every 4 weeks (Q4W); or (3) matching placebo SC Q4W. This study also included a substudy evaluating the efficacy of fasinumab in these same patient groups (n=215 in fasinumab 1 mg Q8W, n=217 in fasinumab 1 mg Q4W, n=214 in placebo).

alkaline phosphatase = details: cited from earlier work
[5] = 1Q4, 1-2 joint subgroup, below the 20-point alkaline phosphatase cut-off
[6] = 1Q4, 1-2 joint subgroup, lower cut-offs for change in alkaline phosphatase

Fasinumab: fully-human high-affinity monoclonal antibody directed against NGF; HCVR/LCVR SEQ ID NOs: 2/10
DA rate, difference from placebo rate ([1]; 1 mg Q4W, alkaline phosphatase cut-off of 20): 0.1%
DA rate [1, 5]: 0.1%
JR rate [1, 5]: 5.5%
JR rate, difference from the ISS placebo rate [1, 5]: 0.4%
overall AA rate [1, 5]: 7.1%
overall AA rate, difference from the ISS placebo rate [1, 5]: 5.6%
overall AA rate [1, 6]: 4.6%
overall AA rate, difference from the placebo rate [1, 6]: 2.5%
rates of JR and DA [1, 6]: approximately the placebo rates
DA rate ([1]; 1Q4, total ISS population): 0.5%
JR rate ([1]; 1Q4, total ISS population): 7.4%
overall AA rate ([1]; 1Q4, total ISS population): 9.2%
odds ratios of DA, change in alkaline phosphatase above vs below cut-off ([2]; cut-offs 10, 15, 20 U/L at 16 weeks, 1Q4 and 1Q8): 6 to 25
odds ratios of AA, change in alkaline phosphatase above vs below cut-off ([2]; cut-offs at 16 weeks, all 95% confidence intervals excluding 1): 1.5 to 2.5
change in WOMAC pain subscale score at 16 weeks compared with placebo [3]: numerically greater improvement compared with placebo
co-primary endpoints: pain and physical function (WOMAC score) compared to placebo [4]: significantly reduced pain and improved physical function (WOMAC score) compared to placebo
mean increase in alkaline phosphatase following initiation of therapy (alkaline phosphatase; depending upon dose): 5 to 10 U/L
time of peak of the mean increase in alkaline phosphatase (alkaline phosphatase; following initiation of therapy): approximately 16 weeks

From patent US20240002491A1, “METHODS FOR SELECTING PATIENTS FOR TREATMENT WITH AN NGF ANTAGONIST” (Regeneron Pharmaceuticals, Inc., priority 2022, published 2024)
